Measured values reported in patent US20220119492A1 (MEDIKINE, published 2022).
Bridge positions count the residues as written; N and C are the ends. Ends that are not written are not given here.

T1: human IL-2Rβ (CD122 protein, Fc Tag) (27-239) (human, UniProt P14784 27-239)
T1 construct: range 27-239; Bought protein; also called hu-IL-2Rβ subunit; IL-2Rβ subunit; not shown: Fc tag of the bought protein
T1 sequence (looked up): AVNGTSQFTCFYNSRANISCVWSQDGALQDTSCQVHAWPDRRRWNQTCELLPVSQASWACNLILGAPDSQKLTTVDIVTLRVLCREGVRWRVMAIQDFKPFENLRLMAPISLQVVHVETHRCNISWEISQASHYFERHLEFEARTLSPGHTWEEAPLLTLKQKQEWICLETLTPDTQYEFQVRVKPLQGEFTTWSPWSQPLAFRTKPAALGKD


Target: T1, human IL-2Rβ (CD122 protein, Fc Tag) …
Test: phage ELISA competition
In short: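 Test ligands and a phage tracer competed for human IL-2Rβ-Fc in a binding ELISA, with IC50 obtained from the absorbance readings of the ligand dilution series. Without washing, 50 μL of phage tracer went on for 45 min at 4° C, and bound phage was developed with TMB for 1 to 15 min at 25° C before stop solution and absorbance at 450 nm.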

Row | Binder | IC50
1 | MGSWLPCWMAQLGDLCDVEGGM [SEQ ID NO 2636] | < 100 µM
2 | WYSCGKAQLGELCDLDVESQPG [SEQ ID NO 2624] | < 100 µM
3 | WYPCWMAQLGELCDHEWPSYGA [SEQ ID NO 2635] | < 100 µM
4 | YRRERVEFPCWLAQLGELCDKE [SEQ ID NO 2608] | < 100 µM
5 | QKGFLPCWRAQLGQLCDMESQY [SEQ ID NO 2637] | < 100 µM
6 | GSGWQPCWMADLGELCDLDNEK [SEQ ID NO 2638] | < 100 µM
7 | FKPCWIANLGELCDMDDERSSE [SEQ ID NO 2614] | < 100 µM
8 | WNPCWIAQLGDLCDMV [SEQ ID NO 2596] | < 100 µM
9 | WYPCWIAQLGEVCDLEKQTGSV (disulfide 4-13 (inferred)) [SEQ ID NO 2611] | < 100 µM
10 | AYRIYPCWKAQLGELCDLDNAD [SEQ ID NO 2641] | < 100 µM
11 | WKPCWMARLGELCDIEDTKVNA [SEQ ID NO 2615] | < 100 µM
12 | EQGMLGYFPCWKALLGDVCDLD [SEQ ID NO 2602] | < 100 µM
13 | FYPCWKARLGELCELEELRGYY [SEQ ID NO 2617] | < 100 µM
14 | SLPCWMAQLGDLCELH (disulfide 4-13 (inferred)) [SEQ ID NO 2583] | < 100 µM
15 | WLSPPSYLPCWMAQLGELCDLV [SEQ ID NO 2598] | < 100 µM
16 | QPAWLPCWLAQLGELCDLGTGA [SEQ ID NO 2643] | < 100 µM
17 | YWPCSMASLGELCDLEWQGRLP [SEQ ID NO 2633] | < 100 µM
18 | YKPCWIAQLGELCELE [SEQ ID NO 2585] | < 100 µM
19 | WKPCWLAQLGELCDLERPSTTS [SEQ ID NO 2623] | < 100 µM
20 | QRNSFPCWLAQLGDLCDLGDWA [SEQ ID NO 2642] | < 100 µM
21 | TVGQFEWYPCSTAQLGELCDLD [SEQ ID NO 2605] | < 100 µM
22 | GYPCWLAQLGDYCDLDAGAPSW [SEQ ID NO 2621] | < 100 µM

Row | Binder | IC50
23 | WRRWYPCWMAQLGELCDLDQWT (disulfide 7-16 (inferred)) [SEQ ID NO 2639] | < 100 µM
24 | WDVHAIRNPCWLAKLGDLCDLD [SEQ ID NO 2599] | < 100 µM
25 | WKPCWRAQLGELCDLELGPSER [SEQ ID NO 2631] | < 100 µM
26 | WKPCWMAGLGELCELD [SEQ ID NO 2592] | < 100 µM
27 | SLPCWMAQLGELCDLV [SEQ ID NO 2591] | < 100 µM
28 | SKPCWMAQLGELCDLDVWNLQM [SEQ ID NO 2620] | < 100 µM
29 | SLPCWIARLGELCDLDGYDGEE [SEQ ID NO 2616] | < 100 µM
30 | RLPCWRAQLGDLCELDWGLDMG [SEQ ID NO 2619] | < 100 µM
31 | WKPCFIASLGELCDLDQGSVEV [SEQ ID NO 2629] | < 100 µM
32 | SWPCWMAQLGDLCDLDGSAGAS [SEQ ID NO 2622] | < 100 µM
33 | YKPCQMAQLGELCDLDVDNKAE [SEQ ID NO 2613] | < 100 µM
34 | WYPCWMAHLGDVCDLESFGQTE [SEQ ID NO 2612] | < 100 µM
35 | WQPCWRAKLGELCDLE (disulfide 4-13 (inferred)) [SEQ ID NO 2594] | < 100 µM
36 | WKPCWLAQLGDLCEME [SEQ ID NO 2587] | < 100 µM
37 | VRAWYPCWIARLGELCDLEVD (disulfide 7-16 (inferred)) [SEQ ID NO 2580] | < 100 µM
38 | IDRADGWKPCWIAQVGELCVLE [SEQ ID NO 2607] | < 100 µM
39 | WLPCWLAHLGDICDLQ [SEQ ID NO 2597] | < 100 µM
40 | RRSWYPCRIAQLGELCDLDPRV (disulfide 7-16 (inferred)) [SEQ ID NO 2640] | < 100 µM
41 | IPKGESWFPCWMAAMGELCDLE [SEQ ID NO 2610] | < 100 µM
42 | WWPCSSAELGEICDFD [SEQ ID NO 2593] | < 100 µM
43 | GQVVETSLPCWEAQLGELCVLD [SEQ ID NO 2604] | < 100 µM
44 | FFPCWMGQLGDLCDLEVRSMQK [SEQ ID NO 2632] | < 100 µM

Row | Binder | IC50
45 | WFPCWMAQLGEVCDLD [SEQ ID NO 2581] | < 100 µM
46 | LHPCWMAQLGELCDLE [SEQ ID NO 2590] | < 100 µM
47 | WQPCWMAQLGELCDLE [SEQ ID NO 2586] | < 100 µM
48 | WLPCWMAQLGELCVME [SEQ ID NO 2589] | < 100 µM
49 | WRVTASLQPCWMAQLGELCDLN [SEQ ID NO 2603] | < 100 µM
50 | WTPCWIAHLGDLCDLEPQDDTD (disulfide 4-13 (inferred)) [SEQ ID NO 2628] | < 100 µM
51 | ALVGGTFYPCYVAHLGELCDIE [SEQ ID NO 2606] | < 100 µM
52 | DTGRDGWKPCWMALLGELCELE (disulfide 10-19 (inferred)) [SEQ ID NO 2601] | < 100 µM
53 | SNPCWMAQLWELCDLE [SEQ ID NO 2584] | < 100 µM
54 | WSPCWIATLGELCDLD [SEQ ID NO 2595] | < 100 µM
55 | YVPCYMARLGELCELEANRPGQ [SEQ ID NO 2625] | < 100 µM
56 | SKPCWLAQLGDLCDFDWTAADH [SEQ ID NO 2626] | < 100 µM
57 | WYPCYMASLGELCDLQSSISPR [SEQ ID NO 2634] | < 100 µM
58 | GAGVLHRWPCWMAKLGDLCDLD [SEQ ID NO 2600] | < 100 µM
59 | WYPCHMAKLRELCDLD [SEQ ID NO 2582] | < 100 µM
60 | WFPCWMAQLGDLCELEPDSVPA [SEQ ID NO 2627] | < 100 µM
61 | WLPCWMAKLGDLCELE [SEQ ID NO 2588] | < 100 µM
62 | WKPCWMAALGELCDLERSVGKV [SEQ ID NO 2630] | < 100 µM
63 | AVSHGNWLPCYIAQLGELCDLD [SEQ ID NO 2609] | < 100 µM
64 | WKPCWIADLGELCDLAPAWHEY [SEQ ID NO 2618] | < 100 µM
